Reference: patent US20190185569A1 (published 2019)
Blank lines part the entries; values can stand above or below the molecule they belong to.

Legend:
[1] = biological target: T cell surface antigens CTLA4 and PD-1; test: flow cytometry, PHA-stimulated CD4+ T cells; Ab 100 nM
PD-1-mFc [2] = biological target: T1, PD-1-mFc (mouse, UniProt Q15116 25-170 (human entry), limits assumed); test: competition ELISA, coat PD-1-mFc 0.2 ug/mL, PDL1-hFc 2 ug/ml
T1 construct: extracellular domain; a TEV site is implied; not shown: mouse IgG Fc fragment (mFc)
T1 sequence (Q15116 25-170 limits assumed): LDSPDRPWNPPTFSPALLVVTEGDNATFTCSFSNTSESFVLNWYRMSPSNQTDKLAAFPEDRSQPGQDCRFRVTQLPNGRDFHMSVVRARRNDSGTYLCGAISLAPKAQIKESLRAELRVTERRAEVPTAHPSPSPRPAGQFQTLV

PD-1-mFc [3] = biological target: T1, PD-1-mFc; test: indirect ELISA, coat PD-1-mFc 0.5 ug/mL
Description: TMB (Neogen, 308177) was added to react for 5 mins. The absorbance was read at the wavelength of 450 nm in a microplate reader.

[4] = biological target: T2, PD-1 antigen obtained by digesting PD-1-mFc with TEV protease (UniProt Q15116 25-170, limits assumed, biotin-labelled (sites not given)); test: BLI (Fortebio), biotin-PD-1 on SA sensor, antibody in solution
T2 construct: extracellular domain; also called antigen PD-1
T2 sequence (Q15116 25-170 limits assumed): as above
Description: The antibodies were diluted with PBST from 200 nM down three fold each time. The dissociation was also in PBST.

[5] = biological target: T3, CTLA4 antigen obtained by digesting CTLA4-mFc with TEV protease (human, UniProt P16410 36-161); test: BLI (Fortebio), antibody amine-coupled on AR2G sensor, CTLA4 in solution
T3 construct: extracellular domain; Biotin-labelled when immobilised on SA sensors; also called CTLA4 protein; antigen CTLA4
T3 sequence (P16410 36-161): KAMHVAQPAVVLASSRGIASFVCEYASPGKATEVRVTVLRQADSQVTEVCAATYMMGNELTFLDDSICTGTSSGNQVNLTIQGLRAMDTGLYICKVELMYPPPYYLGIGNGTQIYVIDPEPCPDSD
Description: 1.2 Antibody 4G10 was immobilized to AR2GBiosensors by amine coupling method, and then blocked with ethanolamine and equilibrating in PBST, and then bound to CTLA4. CTLA4 was double gradient diluted with PB ST to the concentrations of 268.1, 134.1, 67, 33.5, 16.8, 8.38, 4.19, and 0 nM. The dissociation was also in PBST.

- MFI (fluorescence intensity) [1]: 10.2
Molecule: hIgG (antibody)

- EC50 (PD-1-mFc [2]): 0.853 nM
- EC50 (PD-1-mFc [3]): 0.175 nM
- Kd [4]: 0.0181 nM
- koff [4]: 6.12e-06 s⁻¹
- kon [4]: 338000 M⁻¹ s⁻¹
B1: monoclonal antibody 14C12 (antibody, V domains shown)
VH: EVKLVESGGGLVKPGGSLKLSCAASGFAFSSYDMSWVRQTPEKRLEWVATISGGGRYTYYPDSVKGRFTISRDNARNTLYLQMSSLRSEDTALYYCANRYGEAWFAYWGQGTLVTVSA
VL: DIKMTQSPSSMYASLGERVTFTCKASQDINTYLSWFQQKPGKSPKTLIYRANRLVDGVPSRFSGSGSGQDYSLTISSLEYEDMGIYYCLQYDEFPLTFGAGTKLEL
notes: Mouse hybridoma antibody; also called antibody secreted by hybridoma LT003 (PD-1-14C12)

- Kd [5]: 0.301 nM
- koff [5]: 0.000114 s⁻¹
- kon [5]: 378000 M⁻¹ s⁻¹
B2: monoclonal antibody 4G10 (antibody, V domains shown)
VH: QVKLQESGPELVKPGASMKISCKASGYSFTGYTMNWVKQSHGKNLEWIGLINPYNNITNYNQKFMGKATFTVDKSSSTAYMELLRLTSEDSGVYFCARLDYRSYWGQGTLVTVSA
VL: QAVVTQESALTTSPGETVTLTCRSSTGAVTTSNFANWVQEKPDHLFTSLIGGTNNRAPGVPARFSGSLIGDKAALTITGAQTEDEAIYFCALWYSNHWVFGGGTKLTVLG
notes: Mouse hybridoma antibody purified on protein A; also called antibody secreted by hybridoma LT002 (CTLA4-4G10)
